Measured values as given in patent US20170342151A1.

How the values were obtained:
[1] = target: CD3 antigen (surface plasmon resonance); experiment: SPR, Biacore, two state reaction model
[2] = target: CD3 on T cells (UniProt P07766); experiment: FACS on T cells, 1 ug antibody, PE goat anti-human secondary; panel labelled CONTROL
[3] = target: CD3 on T cells (UniProt P07766); experiment: FACS on T cells, 0.1 ug antibody, PE goat anti-human secondary; panel labelled CONTROL
[4] = target: CD3 on T cells (UniProt P07766); experiment: FACS on T cells, 0.01 ug antibody, PE goat anti-human secondary; panel labelled CONTROL
[5] = target: CD3 on T cells (UniProt P07766); experiment: FACS on T cells, negative control antibody, amount not given, PE goat anti-human secondary; the same row stands in all three tables of the figure
[6] = target: human chondroitin sulfate proteoglycan 4 (CSPG4) on cells (human) (UniProt Q6UVK1); experiment: FACS on M14 cells, negative control antibody, amount not given, PE goat anti-human secondary; the same row stands in all three tables of the figure
Chain of human chondroitin sulfate proteoglycan 4 (CSPG4) on cells (human) (Q6UVK1 30-2322 limits assumed): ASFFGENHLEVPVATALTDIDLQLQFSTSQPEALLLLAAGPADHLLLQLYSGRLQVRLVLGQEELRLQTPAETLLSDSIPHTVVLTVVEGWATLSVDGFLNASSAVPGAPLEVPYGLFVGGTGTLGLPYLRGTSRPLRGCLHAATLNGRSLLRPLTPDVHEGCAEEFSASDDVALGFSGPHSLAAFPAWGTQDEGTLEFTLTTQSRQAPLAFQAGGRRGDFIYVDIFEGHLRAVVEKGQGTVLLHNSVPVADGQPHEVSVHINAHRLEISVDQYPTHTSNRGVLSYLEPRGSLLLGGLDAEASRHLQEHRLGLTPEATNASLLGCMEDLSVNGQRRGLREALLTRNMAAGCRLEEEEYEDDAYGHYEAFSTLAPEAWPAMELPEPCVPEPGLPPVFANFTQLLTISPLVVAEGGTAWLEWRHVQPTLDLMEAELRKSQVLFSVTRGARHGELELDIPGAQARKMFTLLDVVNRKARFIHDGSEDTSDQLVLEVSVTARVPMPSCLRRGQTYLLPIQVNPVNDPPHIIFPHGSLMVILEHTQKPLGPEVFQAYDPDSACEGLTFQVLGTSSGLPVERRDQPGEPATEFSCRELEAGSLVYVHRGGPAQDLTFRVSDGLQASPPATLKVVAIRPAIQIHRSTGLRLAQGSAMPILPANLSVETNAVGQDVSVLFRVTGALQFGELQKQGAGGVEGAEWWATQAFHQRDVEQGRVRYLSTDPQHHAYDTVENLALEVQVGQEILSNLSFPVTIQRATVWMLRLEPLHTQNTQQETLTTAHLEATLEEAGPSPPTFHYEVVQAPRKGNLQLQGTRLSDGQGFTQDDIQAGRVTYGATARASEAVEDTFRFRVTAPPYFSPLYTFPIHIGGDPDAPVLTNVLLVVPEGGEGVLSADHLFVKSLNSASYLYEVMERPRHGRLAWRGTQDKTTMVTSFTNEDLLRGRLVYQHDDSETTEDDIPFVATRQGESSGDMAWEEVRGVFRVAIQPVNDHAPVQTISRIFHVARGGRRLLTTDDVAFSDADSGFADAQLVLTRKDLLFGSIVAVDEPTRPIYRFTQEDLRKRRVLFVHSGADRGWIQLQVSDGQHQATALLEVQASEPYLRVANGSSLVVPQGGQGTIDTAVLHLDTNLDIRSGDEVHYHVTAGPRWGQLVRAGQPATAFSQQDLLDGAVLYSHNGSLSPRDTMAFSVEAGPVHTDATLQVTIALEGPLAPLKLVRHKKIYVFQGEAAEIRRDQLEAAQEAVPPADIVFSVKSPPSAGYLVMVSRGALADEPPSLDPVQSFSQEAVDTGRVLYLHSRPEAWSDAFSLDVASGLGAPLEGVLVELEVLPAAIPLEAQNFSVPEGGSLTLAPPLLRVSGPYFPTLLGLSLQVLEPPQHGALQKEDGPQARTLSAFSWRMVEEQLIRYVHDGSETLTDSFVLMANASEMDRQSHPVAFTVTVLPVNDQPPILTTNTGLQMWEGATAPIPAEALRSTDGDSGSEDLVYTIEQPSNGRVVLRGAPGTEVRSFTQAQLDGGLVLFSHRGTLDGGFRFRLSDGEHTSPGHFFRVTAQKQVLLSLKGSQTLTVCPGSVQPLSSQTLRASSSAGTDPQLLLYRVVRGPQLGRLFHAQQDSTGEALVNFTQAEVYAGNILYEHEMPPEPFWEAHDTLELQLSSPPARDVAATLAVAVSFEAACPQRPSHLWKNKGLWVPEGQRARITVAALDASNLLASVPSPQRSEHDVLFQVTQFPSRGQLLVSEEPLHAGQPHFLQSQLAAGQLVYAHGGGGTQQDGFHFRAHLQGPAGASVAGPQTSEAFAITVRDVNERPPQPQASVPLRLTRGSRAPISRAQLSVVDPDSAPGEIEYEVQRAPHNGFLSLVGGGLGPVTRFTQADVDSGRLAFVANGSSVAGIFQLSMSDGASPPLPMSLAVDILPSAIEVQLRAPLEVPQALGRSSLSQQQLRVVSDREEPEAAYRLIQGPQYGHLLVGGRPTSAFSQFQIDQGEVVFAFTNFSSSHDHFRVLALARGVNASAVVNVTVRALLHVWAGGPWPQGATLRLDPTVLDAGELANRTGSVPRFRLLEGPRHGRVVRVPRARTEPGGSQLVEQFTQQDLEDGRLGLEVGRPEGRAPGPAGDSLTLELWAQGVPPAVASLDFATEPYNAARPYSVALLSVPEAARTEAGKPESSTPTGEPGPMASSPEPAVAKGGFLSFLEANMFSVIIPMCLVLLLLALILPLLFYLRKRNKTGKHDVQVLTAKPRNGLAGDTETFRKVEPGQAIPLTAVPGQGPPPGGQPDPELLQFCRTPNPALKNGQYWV

Chain of CD3 on T cells (P07766 23-207, chain 1 of 3): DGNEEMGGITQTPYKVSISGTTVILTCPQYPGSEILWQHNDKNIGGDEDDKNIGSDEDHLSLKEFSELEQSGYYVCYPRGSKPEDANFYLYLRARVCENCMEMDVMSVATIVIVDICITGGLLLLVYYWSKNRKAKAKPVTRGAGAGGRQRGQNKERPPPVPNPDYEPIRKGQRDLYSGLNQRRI
Chain of CD3 on T cells (P09693 23-182, chain 2 of 3, further chain): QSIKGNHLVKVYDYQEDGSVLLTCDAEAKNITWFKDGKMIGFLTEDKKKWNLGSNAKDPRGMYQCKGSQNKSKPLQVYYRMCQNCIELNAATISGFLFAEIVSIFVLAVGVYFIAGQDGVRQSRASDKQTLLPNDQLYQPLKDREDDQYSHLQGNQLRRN
Chain of CD3 on T cells (P04234 22-171, chain 3 of 3, further chain): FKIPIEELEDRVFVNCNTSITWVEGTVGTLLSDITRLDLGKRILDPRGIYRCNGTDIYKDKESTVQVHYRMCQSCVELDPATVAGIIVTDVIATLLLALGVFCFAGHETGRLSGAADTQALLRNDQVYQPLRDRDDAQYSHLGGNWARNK

Kd [1] [µM] | koff [1] [s⁻¹] | kon [1] [M⁻¹ s⁻¹] | GEOMETRIC MEAN : FL2-H [2] | GEOMETRIC MEAN : FL2-H [3] | GEOMETRIC MEAN : FL2-H [4] | GEOMETRIC MEAN : FL2-H [5] | GEOMETRIC MEAN : FL2-H [6] | Substance
0.0617 | 0.105 | 1.71e+06 | 2010 | 645 | 66.1 | – | – | humanized OKT3 IgG1-aGlyco (antibody)
– | – | – | – | – | – | 5.1 | 5.15 | control human IgG1 antibody (non-specific for CSPG4 or T cells)
